Results on three substances are retold here after paper PMC12447900.

In experiment [1] the target is recombinant HA-tagged Vimentin (Vimentin-HA) (human) (UniProt P08670). The experiment in a line: ELISA; Vimentin-HA coated as ligand at 10 ug/ml in PBS on polystyrene wells; AP-MS candidate as analyte, 1 h at RT in PBS, 0.1 % BSA, 0.02 % Tween-20; detected by anti-SpyTag antibody; approximate Kd by one-site total saturation binding fit. In general terms: ELISA stands for enzyme-linked immunosorbent assay.

Experiment [2] concerns the target EPHB2, recombinant ectodomain (human) (UniProt P29323). The experiment can be described thus: ELISA; AP-MS candidate coated as ligand at 10 ug/ml in PBS on polystyrene wells; Vimentin-HA as analyte, 30 min at RT in PBS, 0.1 % BSA, 0.02 % Tween-20; detected by anti-HA-tag antibody; approximate Kd by one-site total saturation binding fit.
In experiment [3] the target is EPHA2, recombinant ectodomain (human) (UniProt P29317). The description is as above.
For experiment [4], the target named is LRRC15, recombinant ectodomain (human) (UniProt Q8TF66). The description is as above.

Usually Kd stands for the concentration at which binding is half-saturated.

With “DKK1, recombinant (from UniProt O94907 32-266) (ligand)”, the Kd in experiment [1] stood at 232 nM. For the substance “TFRC, recombinant ectodomain (from UniProt P02786 89-760) (receptor)”, the Kd in experiment [1] stood at 119 nM. On to “recombinant HA-tagged Vimentin (Vimentin-HA) (from UniProt P08670 1-466) (natural protein)”, for which the Kd in experiment [2] came out at 65.3 nM; in experiment [3] it was 20.7 nM; in experiment [4], 53.6 nM.
